Results on 2 molecules are retold here after publication PMC4945140 (Molecular Biology of the Cell, 2016).

To fix the notation:
B1: His6-MBP-Hsl1(611–950) fusion protein (domain or fragment)
chain: RETVHDNEMPLPQLPKSPSRYSLSRRAIHASPSTKSIHKSLSRKNIAATVAARRTLQNSASKRSLYSLQSISKRSLNLNDLLVFDDPLPSKKPASENVNKSEPHSLESDSDFEILCDQILFGNALDRILEEEEDNEKERDTQRQRQNDTKSSADTFTISGVSTNKENEGPEYPTKIEKNQFNMSYKPSENMSGLSSFPIFEKENTLSSSYLEEQKPKRAALSDITNSFNKMNKQEGMRIEKKIQREQLQKKNDRPSPLKPIQHQELRVNSLPNDQGKPSLSLDPRRNISQPVNSKVESLLQGLKFKKEPASHWTHERGSLFMSEHVEDEKPVKASDVSIE
B2: Cdc11-capped septin hetero-octamers (Cdc11-Cdc12-Cdc3-Cdc10-Cdc10-Cdc3-Cdc12-Cdc11) (complex)
chain 1: MSGIIDASSALRKRKHLKRGITFTVMIVGQSGSGRSTFINTLCGQQVVDTSTTILLPTDTSTEIDLQLREETVELEDDEGVKIQLNIIDTPGFGDSLDNSPSFEIISDYIRHQYDEILLEESRVRRNPRFKDGRVHCCLYLINPTGHGLKEIDVEFIRQLGSLVNIIPVISKSDSLTRDELKLNKKLIMEDIDRWNLPIYNFPFDEDEISDEDYETNMYLRTLLPFAIIGSNEVYEMGGDVGTIRGRKYPWGILDVEDSSISDFVILRNALLISHLHDLKNYTHEILYERYRTEALSGESVAAESIRPNLTKLNGSSSSSTTTRRNTNPFKQSNNINNDVLNPASDMHGQSTGENNETYMTREEQIRLEEERLKAFEERVQQELLLKRQELLQREKELREIEARLEKEAKIKQEE
chain 2: MSAATATAAPVPPPVGISNLPNQRYKIVNEEGGTFTVMLCGESGLGKTTFINTLFQTVLKRADGQQHRQEPIRKTVEIDITRALLEEKHFELRVNVIDTPGFGDNVNNNKAWQPLVDFIDDQHDSYMRQEQQPYRTKKFDLRVHAVLYFIRPTGHGLKPIDIETMKRLSTRANLIPVIAKADTLTAQELQQFKSRIRQVIEAQEIRIFTPPLDADSKEDAKSGSNPDSAAVEHARQLIEAMPFAIVGSEKKFDNGQGTQVVARKYPWGLVEIENDSHCDFRKLRALLLRTYLLDLISTTQEMHYETYRRLRLEGHENTGEGNEDFTLPAIAPARKLSHNPRYKEEENALKKYFTDQVKAEEQRFRQWEQNIVNERIRLNGDLEEIQGKVKKLEEQVKSLQVKKSHLK
chain 3: MSLKEEQVSIKQDPEQEERQHDQFNDVQIKQESQDHDGVDSQYTNGTQNDDSERFEAAESDVKVEPGLGMGITSSQSEKGQVLPDQPEIKFIRRQINGYVGFANLPKQWHRRSIKNGFSFNLLCVGPDGIGKTTLMKTLFNNDDIEANLVKDYEEELANDQEEEEGQGEGHENQSQEQRHKVKIKSYESVIEENGVKLNLNVIDTEGFGDFLNNDQKSWDPIIKEIDSRFDQYLDAENKINRHSINDKRIHACLYFIEPTGHYLKPLDLKFMQSVYEKCNLIPVIAKSDILTDEEILSFKKTIMNQLIQSNIELFKPPIYSNDDAENSHLSERLFSSLPYAVIGSNDIVENYSGNQVRGRSYPWGVIEVDNDNHSDFNLLKNLLIKQFMEELKERTSKILYENYRSSKLAKLGIKQDNSVFKEFDPISKQQEEKTLHEAKLAKLEIEMKTVFQQKVSEKEKKLQKSETELFARHKEMKEKLTKQLKALEDKKKQLELSINSASPNVNHSPVPTKKKGFLR
chain 4: MDPLSSVQPASYVGFDTITNQIEHRLLKKGFQFNIMVVGQSGLGKSTLINTLFASHLIDSATGDDISALPVTKTTEMKISTHTLVEDRVRLNINVIDTPGFGDFIDNSKAWEPIVKYIKEQHSQYLRKELTAQRERFITDTRVHAILYFLQPNGKELSRLDVEALKRLTEIANVIPVIGKSDTLTLDERTEFRELIQNEFEKYNFKIYPYDSEELTDEELELNRSVRSIIPFAVVGSENEIEINGETFRGRKTRWSAINVEDINQCDFVYLREFLIRTHLQDLIETTSYIHYEGFRARQLIALKENANSRSSAHMSSNAIQR

Data set [1] deals with B2. Description: co-sedimentation.
Data set [2] deals with the molecule itself. Briefly: co-sedimentation.

Turning to B1, the binding result in data set [1] is “binds”. As for B2, the binding result in data set [2] is given as “binds”.
